Experiments:
JAK3 JH1 domain = JAK3 JH1 domain (UniProt P52333 822-1111); test: SPR
TYK2 JH1 domain = target: T1, TYK2 JH1 domain (UniProt P29597 897-1176); test: SPR
T1 chain: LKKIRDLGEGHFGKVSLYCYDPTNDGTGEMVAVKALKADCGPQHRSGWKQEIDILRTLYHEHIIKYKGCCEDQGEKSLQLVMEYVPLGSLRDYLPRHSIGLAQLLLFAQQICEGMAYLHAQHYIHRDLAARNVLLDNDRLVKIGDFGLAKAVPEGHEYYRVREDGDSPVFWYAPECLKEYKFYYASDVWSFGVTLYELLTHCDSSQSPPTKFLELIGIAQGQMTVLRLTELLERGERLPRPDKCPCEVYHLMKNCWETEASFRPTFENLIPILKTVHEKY

Sequence of JAK3 JH1 domain (P52333 822-1111): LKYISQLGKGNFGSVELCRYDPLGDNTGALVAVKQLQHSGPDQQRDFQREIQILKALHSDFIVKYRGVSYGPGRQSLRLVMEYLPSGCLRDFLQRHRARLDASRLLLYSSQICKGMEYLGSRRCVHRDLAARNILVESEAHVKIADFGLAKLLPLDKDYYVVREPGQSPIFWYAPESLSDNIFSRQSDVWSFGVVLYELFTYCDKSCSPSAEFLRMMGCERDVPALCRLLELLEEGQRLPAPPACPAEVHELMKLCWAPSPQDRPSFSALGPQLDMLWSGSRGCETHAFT

B1: SOCS5 175–244 fragment (domain or fragment)
chain: RSLRQRLQDTVGLCFPMRTYSKQSKPLFSNKRKIHLSELMLEKCPFPAGSDLAQKWHLIKQHTAPVSPHS
- Kd (JAK3 JH1 domain): 2100 nM
- Kd (TYK2 JH1 domain): 1200 nM

Source: article PMC3749136 (2013)
